Reference: patent US20090298083

Legend:
[1] = target: GST-Pax3 non-phosphorylated (UniProt P23760); assay: EMSA; details: unphosphorylated; value inferred from nearly 10-fold increase on CKII phosphorylation
[2] = target: GST-Pax3 phosphorylated at Ser205 by CKII (UniProt P23760); assay: EMSA; details: Pax3 phosphorylated at Ser205 by CKII; reference for maximal binding; nearly 10-fold more binding than unphosphorylated
[3] = target: FLAG-Pax3 (UniProt P23760); assay: cell_activity; details: CAT assay, proliferating mouse primary myoblasts; activity completely lost after 12 h differentiation
[4] = test system: FLAG-Pax3-FOXO1 fusion; assay: cell_activity; details: CAT assay, proliferating mouse primary myoblasts; no significant change during differentiation

FLAG-Pax3, sequence (P23760 other isoform, or with tags, fused parts or gaps): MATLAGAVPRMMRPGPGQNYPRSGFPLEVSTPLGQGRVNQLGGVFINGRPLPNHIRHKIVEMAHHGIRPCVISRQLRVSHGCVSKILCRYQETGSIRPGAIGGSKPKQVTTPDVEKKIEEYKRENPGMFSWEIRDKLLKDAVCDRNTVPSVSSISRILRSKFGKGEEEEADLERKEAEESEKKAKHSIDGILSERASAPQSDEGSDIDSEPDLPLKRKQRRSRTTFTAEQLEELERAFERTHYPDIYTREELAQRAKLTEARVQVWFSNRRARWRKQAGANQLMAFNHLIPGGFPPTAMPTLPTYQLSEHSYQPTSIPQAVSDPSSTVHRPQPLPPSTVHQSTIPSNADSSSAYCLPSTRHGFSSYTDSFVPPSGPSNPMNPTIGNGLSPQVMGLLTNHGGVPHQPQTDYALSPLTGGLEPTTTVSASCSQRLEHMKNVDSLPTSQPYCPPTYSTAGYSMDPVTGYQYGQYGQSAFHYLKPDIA
GST-Pax3 non-phosphorylated, sequence (P23760 other isoform, or with tags, fused parts or gaps): as above
GST-Pax3 phosphorylated at Ser205 by CKII, sequence (P23760 other isoform, or with tags, fused parts or gaps): as above

Substance: oligonucleotide with paired- and homeodomain recognition sequences
- binding signal [1]: 10%
- binding signal [2]: 100%

Substance: (PRS-9)TK-CAT reporter, six tandem repeats of Pax3 paired and homeodomain recognition sequence
- activity (fold over background) [3]: 2
- activity (fold over background) [4]: 4
